Data published in patent JP2010235447A (dated 2010).
Positions count from the first letter of the chain named.

B1: マウス抗ヒトCD36モノクローナル抗体 クローン1-3 (antibody, mouse IgG2b, V domains shown)
VH: QAQLQQSGAELVRPGASVTLSCKASGYTFTDYEMNWVKQTPVHGLEWIGAIDPEIGGSAYNQKFKGKATLTADKSSSTAYMELRSLTSEDSAVYYCTRSKLPAWFPYWGQGTLVTVSA
VL: EIKMTQSPSAMYASLGERVTITCKASQDINSYLSWFQQKPGKSPKTLIYRANRLVDGVPSRFSGSGSGQDYSLTISSLEFEDMGIYYCLQYEEFPYTFGGGTKLEIK
notes: also called クローン1−3; 抗CD36抗体
B2: マウス抗ヒトCD36モノクローナル抗体 クローン1-36 (antibody, mouse IgG2b, V domains shown)
VH: QVQLQQSGAELVRPGASVKLSCKALNYTFTDYEMHWVKQTPVHGLEWIGGIHPGSGGTAYNQRFKGKATLTADKSSSTAYIEVSSLTSEDSAVYYCSLTTASAWFAYWGQGTLVTVSV
VL: B1 VL with E1D, A10S, V55L, F80Y, E92D, Y96L, G100A, I106L
notes: also called クローン1−36; 抗CD36抗体
B3: マウス抗ヒトCD36モノクローナル抗体 クローン2-66 (antibody, mouse IgG1, V domains shown)
VH: QVQLQQPGAELVKPGASVRMSCKASGYTFTNYNMHWVKQTPGQGLEWIGVIYPGNGDTSYSQKFKGKATLTADKSSRTGYMQLSSLTSEDSAVYYCTRSGWDDWFFDVWGAGTSVTVSS
VL: DVLMTQTPLSLPVSLGDQASISCRSSQSIVQRNGITYLEWYQQKTGQSPKLLIYKVSNRFSGVPDRFSGSGSGTDFTLKISRVEAEDLGVYYCFQGSHVPPTFGGGTKLEIK
notes: also called クローン2−66; 抗CD36抗体
B4: マウス抗ヒトCD36モノクローナル抗体 クローン4-62 (antibody, mouse IgG2a, V domains shown)
VH: QIHLVQSGPELKKPGETVKISCKASGYTFTNYGMNWVMQAPGKVLKWMGWINTYTGETTYADDFKGRFAFSLETSASTAYLQINSLKYEDTASYFCARDDGYSFYYDMDYWGQGTSVTVSS
VL: B3 VL with Q31H, R32T, I35N, E39Q, Q42L, T45P, R82T, P101W
notes: also called クローン4−62; 抗CD36抗体

biological target: T1, CD36 (CD36発現細胞; pcDNA-CD36を一過性に導入した293T細胞) (human, UniProt P16671 2-472); experiment: flow cytometry of hybridoma supernatants on CD36-expressing cells
T1 construct: whole, on cells; also called ヒトCD36; CD36発現株
T1 sequence (P16671 2-472): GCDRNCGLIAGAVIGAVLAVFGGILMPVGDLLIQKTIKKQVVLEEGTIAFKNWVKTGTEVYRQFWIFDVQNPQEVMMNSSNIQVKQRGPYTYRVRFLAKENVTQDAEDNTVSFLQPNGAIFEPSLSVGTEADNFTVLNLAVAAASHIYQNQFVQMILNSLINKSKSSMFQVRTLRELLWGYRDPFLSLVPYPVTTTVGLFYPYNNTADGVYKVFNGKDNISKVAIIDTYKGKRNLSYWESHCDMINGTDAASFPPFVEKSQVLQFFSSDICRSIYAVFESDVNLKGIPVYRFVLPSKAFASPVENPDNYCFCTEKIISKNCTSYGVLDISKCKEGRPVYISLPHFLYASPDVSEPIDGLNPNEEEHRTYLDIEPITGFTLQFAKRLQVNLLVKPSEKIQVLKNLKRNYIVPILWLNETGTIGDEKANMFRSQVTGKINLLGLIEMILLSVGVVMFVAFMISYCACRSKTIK

| binding result | Binder |
| --- | --- |
| binds | B1 |
| binds | B2 |
| binds | B3 |
| binds | B4 |
